Source: patent US20230338589A1

T1: interferon gamma (IFN-γ), murine, recombinant (mouse) (UniProt P01580)
T1 sequence (looked up): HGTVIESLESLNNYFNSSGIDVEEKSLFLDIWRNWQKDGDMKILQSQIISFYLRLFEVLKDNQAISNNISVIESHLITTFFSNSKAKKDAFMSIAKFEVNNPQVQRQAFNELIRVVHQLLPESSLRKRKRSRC


Experiments:
[1] = target: T1, interferon gamma (IFN-γ), murine, recombinant (mouse); test: Octet (BLI) analysis of binding affinity; format not stated
[2] = target: T1, interferon gamma (IFN-γ), murine, recombinant (mouse); test: radioligand cell assay: TUBO cells preincubated with recombinant IFN-γ (10 ng/mL), washed, then incubated with tracer 1 h at 37 C; acid-wash fraction read by gamma counter; background without IFN-γ 1.13 ± 0.28%
[3] = target: T1, interferon gamma (IFN-γ), murine, recombinant (mouse); test: cell-based or functional assay

| Kd [1] [nM] | surface binding (% of activity) [2] [%] | internalization (% internalized activity) in TUBO cells preincubated with IFN-γ [3] [%] | Molecule |
| --- | --- | --- | --- |
| 37.9 | – | – | anti-IFN-γ diabody (homodimer of the single chain Fv derived from clone AN18, produced in CHO cells) |
| – | 13.6 | 3.93 | ^89Zr-anti-IFN-γ labeled-antibody conjugate (AN-18 conjugated to p-SCN-Bn-desferrioxamine and labeled with ^89Zr) (antibody, rat IgG1, V domains shown, p-SCN-Bn-Desferrioxamine (DFO) conjugated to the antibody (Ab:DFO 1:5), chelating ^89Zr; sites not stated) VH: QVQLKESGPGLVQPSQTLSLTCTVSGFSLDSYNVHWVRQPPGKGLEWMGRMKYNGDTSYNSALKSRLRISRDTSKNQVFLKMNSLQTDDTGTYYCTRDWHYGYPSPYFEFWGQGVMVTVSS VL: DVQMTQSPSYLAASPGESVSISCKASKNINTYLAWYQEKPGKTNKLLIYSGSTLQSGTPSRFSGSGSGTDFTLTIRSLEPEDFAVYYCQQHNEYPLTFGSGTKLEVKR |
